{
  "source": "patent US20060287229A1",
  "about": "“Novel CD40 variants” (priority 2004, published 2006)",
  "molecules": {"B1": {"name": "Skipping 6-sCD40-Fc: Fc-tagged CD40 skipping exon 6 variant (protein)", "chain": "EPPTACREKQYLINSQCCSLCQPGQKLVSDCTEFTETECLPCGESEFLDTWNRETHCHQHKYCDPNLGLRVQQKGTSETDTICTCEEGWHCTSEACESCVLHRSCSPGFGVKQIATGVSDTICEPCPVGFFSNVSSAFEKCHPWTRSPGSAESPGGDPHHLRDPVCHPLGAGLYQKGGQEANQ", "modifications": "left off: a dimerising Fc or GST", "notes": "Fc-tagged CD40 skipping exon 6 variant"}, "B2": {"name": "Skipping 5-sCD40-Fc: CD40 skipping exon 5 splice variant fused downstream to the Fc chain of Immunoglobulin IgG1, expressed in baculovirus (protein)", "chain": "EPPTACREKQYLINSQCCSLCQPGQKLVSDCTEFTETECLPCGESEFLDTWNRETHCHQHKYCDPNLGLRVQQKGTSETDTICTCEEGWHCTSEACESCVLHRSCSPGFGVKQIAVRPKTWLCNRQAQTRLMLSVVPRIG", "modifications": "left off: a dimerising Fc or GST", "notes": "CD40 skipping exon 5 splice variant fused downstream to the Fc chain of Immunoglobulin IgG1, expressed in baculovirus"}, "B3": {"name": "Skip5: soluble CD40 splice variant lacking exon 5, SEQ ID NO:1, unique tail amino acids 136-160 (protein, listed as Homo sapiens)", "chain": "MVRLPLQCVLWGCLLTAVHPEPPTACREKQYLINSQCCSLCQPGQKLVSDCTEFTETECLPCGESEFLDTWNRETHCHQHKYCDPNLGLRVQQKGTSETDTICTCEEGWHCTSEACESCVLHRSCSPGFGVKQIAVRPKTWLCNRQAQTRLMLSVVPRIG"}},
  "key": {"human CD154": {"target": "T1, human CD154 (Homo sapiens, UniProt P29965)", "T1 construct": "stably transfected with full length human CD154; expressed in transfected cells; host or cells: mouse fibroblasts, stably transfected", "T1 sequence (P29965 1-261)": "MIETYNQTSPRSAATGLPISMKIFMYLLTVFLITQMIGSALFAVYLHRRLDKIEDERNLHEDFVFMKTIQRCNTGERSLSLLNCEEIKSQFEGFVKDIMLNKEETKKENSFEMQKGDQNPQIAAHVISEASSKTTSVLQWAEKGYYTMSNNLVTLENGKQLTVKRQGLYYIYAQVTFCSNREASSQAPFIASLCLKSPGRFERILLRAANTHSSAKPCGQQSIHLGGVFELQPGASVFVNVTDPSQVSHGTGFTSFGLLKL", "experiment": "FACS analysis of sCD40 binding to mouse fibroblasts expressing human CD154", "details": "Fc tagged proteins, 1-50 μg/ml, 4° C., 60 min; mouse fibroblasts stably transfected with full length human CD154", "procedure": "10^6 mouse fibroblasts (stably transfected with full length human CD154) were incubated with either the known CD40 soluble variant, sCD40 WT (panel C, FIG. 17), the variant CD40-skipping 6 (panel A, FIG. 17) or the variant CD40-skipping 5 (panel B, FIG. 17). All CD40 variants were Fc tagged, and present at a concentration of 1-50 μg/ml at 4° C. for 60 min in total volume of 100 μl (0.5×10^6 cells). […] Analysis was performed using BD FACsCalibur. Panel E in FIG. 17 summarizes the mean fluorescence shift, as plotted versus various concentrations of CD40 protein.\nBriefly, the FACS protocol was performed as follows. Mouse fibroblasts were trypsinized, and washed twice in PBS; cells were centrifuged at 1500 rpm for 10 min between washes. Next, the cells were re-suspended in FACS buffer (0.2% BSA and 0.02% sodium azide diluted 1/10 in PBS) to give 5-10×10^6 cells mL. Cells were placed in FACS test-tubes at a volume of 100 or 200 microliters per tube. […]\nNext, 2 μL (1:50) anti CD40 non-blocking antibody (EA-5 mouse IgG1 PE-conjugated, obtained from Calbiochem) or controls (same isotype PE conjugated) were added to the tubes, and incubated for 30 min at 4° C. […] Next, 0.5 mL PBS was added to tubes, which were read in a FACS machine (BD FACSCalibur). […]\nFor this experiment, the controls included performing parallel assays with: mouse fibroblasts not expressing hCD154; non-relevant Fc (EA5, which is a mouse anti-CD40 antibody, see Malmborg Hager et al., Scandinavian J. 1 mm. 57:517-524 (2003) or non-Fc tagged proteins or purification mock; known CD40 soluble protein; secondary Ab only and isotype control only (isotype refers to an antibody control, featuring the same type of antibody but one which is not able to bind CD40). The axes are as follows: Y=cell counts; X=log scale of fluorescence intensity. M=A marker placed above the peak of positively stained cells on the histogram plot which provide the statistics of the stained population."}, "[1]": {"tested_on": "RANTES secretion via the CD40-CD154 pathway", "experiment": "RANTES cell assay (HPMC cells overlaid with mouse fibroblasts/CD154-mouse fibroblasts, ELISA RANTES test)", "format": "cell-based, human", "details": "for dose response of inhibition of RANTES secretion (in words): FIG. 18G: CD154 ligand present, high cell number 10,000; for level of cytokine RANTES secretion (summary statement): human peritoneal cells plus mouse fibroblasts expressing CD154 ligand", "procedure": "Skipping 5 protein was administered to a mixture of human peritoneal cells (HPMC cells), which express the CD40 receptor on their membrane, and mouse fibroblasts transfected to express the CD154 ligand. The ability of the soluble skipping 5 protein to compete with the CD40 membrane-bound receptor for binding to the CD154 ligand presented on the mouse fibroblasts was thus tested. This ability was measured by determining the resultant level of the cytokine RANTES, which is a cytokine indicative of T cell activation, as compared to when a positive control of interferon (which raises the level of RANTES via a CD40-related pathway) was administered alone.\nHPMC cells were grown in M199+10% FCS (Biological Industries, Bet Ha'emek, Israel), trypsinized (using trypsine from Biological Industries, Bet Ha'emek, Israel, 5 ml/75 cm^2 cell culture flask), and recultured into 96-well plates. Cell should reach at least 80% confluence before further use.\nMouse fibroblasts/CD154-mouse fibroblasts were grown in DMEM+10% FCS (Biological Industries). Cells were trypsinized, pelleted (5 min 500 at rpm), counted (½ vol cells+½ vol trypan blue) and resuspended in M199+10% FCS. Cells were then diluted (10,000 or 5000 cells per ml).\nCD40 proteins/antibodies were prepared in various concentrations in PBS according to the desired dose response/treatment (volume of 1 reaction should not exceed 20 microliters), followed by adding the same volume of PBS to the negative and positive controls.\nThe CD40 protein was added to 100 microliters of mouse fibroblasts or CD154-mouse fibroblasts in eppendorf tubes (final volume dependant on duplicates/triplicates) and incubated at R.T for 1 h at 200 rpm (rotation during incubation)\nDuring this incubation time the HPMC were prepared, by removing medium and washing cells twice, and adding 100 microliters of fresh M199+10% FCS with or without 100 U/ml IFN (PeproTech, 50U/μl).\nThe CD40 L cells mixtures were overlaid on the HPMC (110 ul/well) and incubated O.N (at 37° C., 5% CO2).\n100 microliters were removed from supernatant and placed into new 96 well plates, followed by diluting the samples 1/10 in M199+10% FCS and using diluted samples for the ELISA RANTES test.\nThe cells in the experiment plate were checked for viability."}, "K562 cells [2]": {"tested_on": "K562 cells", "experiment": "Caspase activation in K562 cells (immunoblot with anti cleaved PARP antibody)", "format": "cell-based", "details": "25 μM etoposide, 17 hrs", "procedure": "For this purpose K562 cells were treated with 25 μM etoposide for 17 hrs, and the activation of caspases, one of the hallmarks of apoptosis, was measured. To measure caspase activation, the cells were lysed, immunoblotted and PARP, a known substrate for caspase-3, was probed using anti cleaved PARP antibody (Cell Signaling, Beverly, Mass.)."}, "K562 cells [3]": {"tested_on": "K562 cells", "experiment": "RT-PCR of CD40 splice forms in K562 cells treated with etoposide", "format": "cell-based", "details": "20 μM Etoposide, various time intervals", "procedure": "Samples of RT reactions of K562 treated with etoposide were prepared and used for PCR using CD40 primers (35 cycles). Etoposide (Sigma) is known as double-stranded DNA breakage and apoptosis inducing agent. The RT reactions were checked before the analysis to exclude possible genomic contamination and to ensure similar cDNA concentrations in the different samples, using quantitation with GAPDH (not shown)."}, "[4]": {"details": "FIG. 18C: HPMC cells plus mouse fibroblasts expressing CD154, with interferon"}, "[5]": {"details": "FIG. 18E: fixed concentration 200 nM sCD40 protein, varying number of CD154+ mouse fibroblasts"}, "[6]": {"details": "FIGS. 18A-C, complete system with INF and CD154 mouse fibroblasts"}},
  "note": "“Also recorded” adds a separate entry of the source.",
  "data": [
    {"molecule": "WT-sCD40-Fc: known CD40 extracellular domain (soluble, truncated) fused to Fc of IgG1 [reference compound]", "values": [
      {"measurement": "sCD40 binding to membrane CD154 (FACS)", "setting": "human CD154", "value": "significant binding"},
      {"measurement": "Rantes level", "setting": "[1]; [4]", "value": "approximately 1000 pg/ml"},
      {"measurement": "inhibition of Rantes level", "setting": "[1]; [4]", "value": 50, "unit": "%"},
      {"measurement": "inhibition of RANTES secretion", "setting": "[1]; [5]", "value": "40-100%"},
      {"measurement": "dose response of inhibition of RANTES secretion (in words)", "setting": "[1]", "value": "inhibitory effect"},
      {"measurement": "effect on RANTES secretion (in words)", "setting": "[1]; [6]", "value": "inhibitory properties"}
    ]},
    {"molecule": "known truncation product derived from known CD40: known CD40 extracellular domain without transmembrane domain, a simple truncation product of known CD40 [reference compound]", "values": [
      {"measurement": "level of cytokine RANTES secretion (summary statement)", "setting": "[1]", "value": "decreased level"}
    ]},
    {"molecule": "COc1cc([C@@H]2c3cc4c(cc3[C@@H](O[C@@H]3O[C@@H]5CO[C@@H](C)O[C@H]5[C@H](O)[C@H]3O)[C@H]3COC(=O)[C@H]23)OCO4)cc(OC)c1O", "note": "[Etoposide]", "values": [
      {"measurement": "cleaved PARP (caspase activation)", "setting": "K562 cells [2]", "value": "appearance of a band in the expected size"},
      {"measurement": "expression levels of secreted CD40 splice variant skipping exon 5 (RT-PCR)", "setting": "K562 cells [3]", "value": "increase"},
      {"measurement": "known wild type CD40 expression levels (RT-PCR)", "setting": "K562 cells [3]", "value": "decrease"}
    ]},
    {"molecule": "B1", "values": [
      {"measurement": "sCD40 binding to membrane CD154 (FACS)", "setting": "human CD154", "value": "significant binding"},
      {"measurement": "dose response of inhibition of RANTES secretion (in words)", "setting": "[1]", "value": "inhibitory effect"}
    ]},
    {"molecule": "B2", "values": [
      {"measurement": "sCD40 binding to membrane CD154 (FACS)", "setting": "human CD154", "value": "different properties"},
      {"measurement": "effect on RANTES secretion (in words)", "setting": "[1]; [5]", "value": "stimulatory effect"},
      {"measurement": "effect on RANTES level in the absence of CD154 (in words)", "setting": "[1]; FIGS. 18A and B: HPMC cells only or with untransfected mouse fibroblasts, Interferon dependent", "value": "agonistic effect; also recorded: agonistic properties"},
      {"measurement": "effect on RANTES secretion (in words)", "setting": "[1]; [6]", "value": "no inhibition"}
    ]},
    {"molecule": "B3", "values": [
      {"measurement": "dose response of inhibition of RANTES secretion (in words)", "setting": "[1]", "value": "did not cause any inhibition"},
      {"measurement": "level of cytokine RANTES secretion (summary statement)", "setting": "[1]; listed as CD40 skipping exon 5 variant", "value": "increased level"},
      {"measurement": "level of cytokine RANTES secretion (summary statement)", "setting": "[1]; listed as skipping 5", "value": "raise the level of secretion"}
    ]}
  ]
}
